Test results published in PMC12291119, “In Vitro Selection of Cyclized, Glycosylated Peptide Antigens That Tightly Bind HIV High Mannose Patch Antibodies” (ACS Central Science, 2025).

Experiments:
Test in all cases: BLI; glycopeptides immobilized via biotin on a streptavidin biosensor; series of 2-fold dilutions of antibody
[1] = target: H22 glycopeptide (peptide 2)
[2] = target: H1 glycopeptide (peptide 1)
[3] = target: L1 glycopeptide (peptide 8)
[4] = target: random scrambled version of the H1 sequence containing three glycans and cyclization (peptide 6)
[5] = target: H1 mutant without the glycan at the first of the three glycosylation sites (peptide 3)
[6] = target: acyclic H1 variant (peptide 7)
[7] = target: H1 mutant without the glycans at the second and third glycosylation sites (peptide 4)
[8] = target: H1 mutant with IGDIR changed to IAAIA (peptide 5)

B1: PGT128 (antibody, V domains shown)
VH: QPQLQESGPTLVEASETLSLTCAVSGDSTAACNSFWGWVRQPPGKGLEWVGSLSHCASYWNRGWTYHNPSLKSRLTLALDTPKNLVFLKLNSVTAADTATYYCARFGGEVLRYTDWPKPAWVDLWGRGTLVTVSS
VL: QSALTQPPSASGSPGQSITISCTGTSNNFVSWYQQHAGKAPKLVIYDVNKRPSGVPDRFSGSKSGNTASLTVSGLQTDDEAVYYCGSLVGNWDVIFGGGTKLTVL
Kd [1]: 16.9 nM | Kd [2]: 0.52 nM | Kd [3]: 2.37 nM | Kd [4]: 251 nM | fold loss of recognition against H1 (peptide 1) [5]: 2 fold | Kd [6]: 90 nM | fold decrease in binding against H1 (peptide 1) [7]: 40 fold | fold decrease in binding against H1 (peptide 1) [8]: 26 fold
